This assay concerns the target T1, ectodomain of murine βKlotho (F53 to L995 of SEQ ID NO: 218) with a C-terminal FLAG tag (murine, UniProt Q99N32 53-995).
T1 construct: Expressed in HEK293 cells and purified from culture media; also called βKlotho ectodomain; not shown: C-terminal FLAG tag
T1 sequence: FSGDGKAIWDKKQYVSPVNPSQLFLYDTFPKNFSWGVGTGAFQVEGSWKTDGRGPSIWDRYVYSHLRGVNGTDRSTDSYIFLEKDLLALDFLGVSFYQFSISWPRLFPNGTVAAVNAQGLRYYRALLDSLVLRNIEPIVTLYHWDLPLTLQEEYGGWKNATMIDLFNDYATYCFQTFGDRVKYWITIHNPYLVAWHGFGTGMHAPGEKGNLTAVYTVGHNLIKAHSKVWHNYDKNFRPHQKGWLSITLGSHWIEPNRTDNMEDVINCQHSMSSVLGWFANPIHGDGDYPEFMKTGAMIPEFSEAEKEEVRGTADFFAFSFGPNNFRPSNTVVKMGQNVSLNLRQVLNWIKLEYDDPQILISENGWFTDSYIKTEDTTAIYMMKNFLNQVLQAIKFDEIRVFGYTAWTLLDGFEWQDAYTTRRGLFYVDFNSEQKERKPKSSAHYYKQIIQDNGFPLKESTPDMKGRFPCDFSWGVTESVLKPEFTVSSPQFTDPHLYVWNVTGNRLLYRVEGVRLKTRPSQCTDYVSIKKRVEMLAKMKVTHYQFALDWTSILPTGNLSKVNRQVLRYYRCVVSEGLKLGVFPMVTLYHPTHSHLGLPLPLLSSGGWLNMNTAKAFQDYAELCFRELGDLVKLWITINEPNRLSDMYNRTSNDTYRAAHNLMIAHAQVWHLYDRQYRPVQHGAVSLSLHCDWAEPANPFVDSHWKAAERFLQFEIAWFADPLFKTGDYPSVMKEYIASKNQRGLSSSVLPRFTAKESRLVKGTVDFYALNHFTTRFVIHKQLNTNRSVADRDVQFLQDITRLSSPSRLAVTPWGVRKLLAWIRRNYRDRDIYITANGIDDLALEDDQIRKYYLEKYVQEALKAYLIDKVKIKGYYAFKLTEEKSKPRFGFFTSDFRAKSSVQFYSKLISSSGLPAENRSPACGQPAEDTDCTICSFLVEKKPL
The experiment in a line: SPR competition; FGF21 immobilized, fixed βKlotho ectodomain mixed with increasing FGF21 (FIG. 7A). How it is done: Increasing concentrations of FGF21 were mixed with a fixed concentration of βKlotho ectodomain, and the mixtures were passed over a FGF21 chip. […] Increasing concentrations of FGF21²⁹⁻¹⁹⁰/FGF19¹⁹⁷⁻²¹⁶ chimera were mixed with a fixed concentration of βKlotho ectodomain, and the mixtures were passed over a FGF21 chip. […] The figure was created from the data shown in FIGS. 7A-B, which are representative of two independent experiments.
SPR experiments were performed on a Biacore 2000 instrument (Biacore AB), and all the protein-protein and protein-peptide interactions were studied at 25° C. in HBS-EP buffer (10 mM HEPES-NaOH, pH 7.4, 150 mM NaCl, 3 mM EDTA, 0.005% (v/v) polysorbate 20). Proteins were immobilized by amine coupling on flow channels of research grade CM5 chips (Biacore AB). Proteins were injected over a CM5 chip at a flow rate of 50 μl min⁻¹, and at the end of each protein injection (180 s), HBS-EP buffer (50 μl min⁻¹) was flowed over the chip to monitor dissociation for 180 s. In experiments where βKlotho binding to FGFR was analyzed, the chip surface was then regenerated by injecting 50 μl of 2.0 M NaCl in 10 mM sodium/potassium phosphate, pH 6.5. In experiments where α/βKlotho binding to FGF19/21/23 or binding of the FGFR1c-βKlotho complex to FGF21 was studied, 2.0 M NaCl in 10 mM sodium acetate, pH 4.5 was used for chip regeneration. […]

Results on one molecule are retold here after patent US20130231277A1 (NEW YORK UNIVERSITY, published 2013).

B1: human FGF21, secreted bioactive form (H29 to S209 of SEQ ID NO: 100) (ligand)
chain: HPIPDSSPLLQFGGQVRQRYLYTDDAQQTEAHLEIREDGTVGGAADQSPESLLQLKALKPGVIQILGVKTSRFLCQRPDGALYGSLHFDPEACSFRELLLEDGYNVYQSEAHGLPLHLPGNKSPHRDPAPRGPARFLPLPGLPPALPEPPGILAPQPPDVGSSDPLSMVGPSQGRSPSYAS
notes: Used both immobilized on the SPR chip and in solution; also called wild-type FGF21; native FGF21
On to B1, for which the binding result was “binds”.
